The test system of data set [1] is HeLa Kyoto. Put plainly: solubility change mitosis vs G1/S (difference of NP-40 vs SDS log2 ratios) (log2 ratio difference); higher = more soluble in mitosis.
The subject of data set [2] is HeLa Kyoto. Put plainly: thermal stability score vs G1/S (z-score of summed log2 fold changes over temperatures); higher = more thermally stable than in G1/S.
Data set [3] concerns HeLa Kyoto. Kind of data set: solubility in G1/S (NP-40 vs SDS abundance) (log2 ratio); higher = more soluble. Particulars: cell cycle stage: G1/S.
In data set [4] the test system is HeLa Kyoto. Kind of data set: melting temperature (median over replicates), in situ; higher = more thermally stable.
Where [5] appears, read: cell cycle stage: early G1 (4.5 h after nocodazole release).

These results are taken from the supplement of paper PMC5998384.
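For melting temperature (median over replicates), in situ in this document: HeLa Kyoto cells synchronized by double thymidine or nocodazole block, proteins quantified by TMT10plex mass spectrometry, three independent biological replicates.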
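For solubility change mitosis vs G1/S (difference of NP-40 vs SDS log2 ratios) in this document: synchronized HeLa Kyoto cells (double thymidine block for G1/S, nocodazole release for mitosis), protein amounts in NP-40 versus SDS lysates quantified by mass spectrometry, three biological replicates.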
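For solubility in G1/S (NP-40 vs SDS abundance) in this document: HeLa Kyoto cells arrested at G1/S by double thymidine block, proteins quantified by TMT10plex mass spectrometry in mild NP-40 versus SDS extracts, three biological replicates.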
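For thermal stability score vs G1/S (z-score of summed log2 fold changes over temperatures) in this document: synchronized HeLa Kyoto cells, proteins quantified by TMT10plex mass spectrometry, three biological replicates, mitosis taken 0.5 h after nocodazole release, G1/S directly after double thymidine block.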

For “MALLALLLVVALPRVWTDANLTARQRDPEDSQRTDEGDNRVWCHVCERENTFECQNPRRCKWTEPYCVIAAVKIFPRFFMVAKQCSAGCAAMERPKPEEKRFLLEEPMPFFYLKCCKIRYCNLEGPPINSSVFKEYAGSMGESCGGLWLAILLLLASIAAGLSLS [LY6K]”, the “solubility change mitosis (log2)” value in data set [1] is -0.107. In addition, the thermal stability score in data set [2] (setting [5]) is 2.6; in data set [2] (cell cycle stage: mitosis) it was 2.04. The “solubility in G1/S (log2)” value in data set [3] worked out at 0.0392. In addition, the melting temperature in data set [4] (cell cycle stage: G1/S) stood at 52.6 °C; in data set [4] (cell cycle stage: mitosis) it was 52.9 °C.

Regarding “MALLAMHSWRWAAAAAAFEKRRHSAILIRPLVSVSGSGPQWRPHQLGALGTARAYQIPESLKSITWQRLGKGNSGQFLDAAKALQVWPLIEKRTCWHGHAGGGLHTDPKEGLKDVDTRKIIKAMLSYVWPKDRPDLRARVAISLGFLGGAKAMNIVVPFMFKYAVDSLNQMSGNMLNLSDAPNTVATMATAVLIGYGVSRAGAAFFNEVRNAVFGKVAQNSIRRIAKNVFLHLHNLDLGFHLSRQTGALSKAIDRGTRGISFVLSALVFNLLPIMFEVMLVSGVLYYKCGAQFALVTLGTLGTYTAFTVAVTRWRTRFRIEMNKADNDAGNAAIDSLLNYETVKYFNNERYEAQRYDGFLKTYETASLKSTSTLAMLNFGQSAIFSVGLTAIMVLASQGIVAGTLTVGDLVMVNGLLFQLSLPLNFLGTVYRETRQALIDMNTLFTLLKVDTQIKDKVMASPLQITPQTATVAFDNVHFEYIEGQKVLSGISFEVPAGKKVAIVGGSGSGKSTIVRLLFRFYEPQKGSIYLAGQNIQDVSLESLRRAVGVVPQDAVLFHNTIYYNLLYGNISASPEEVYAVAKLAGLHDAILRMPHGYDTQVGERGLKLSGGEKQRVAIARAILKDPPVILYDEATSSLDSITEETILGAMKDVVKHRTSIFIAHRLSTVVDADEIIVLDQGKVAERGTHHGLLANPHSIYSEMWHTQSSRVQNHDNPKWEAKKENISKEEERKKLQEEIVNSVKGCGNCSC [ABCB7]”, the “solubility change mitosis (log2)” value in data set [1] is -0.12. Further, the values for the thermal stability score in data set [2] (setting [5]) and in data set [2] (cell cycle stage: mitosis) were -0.909 and -1.83, respectively. Also, the “solubility in G1/S (log2)” value in data set [3] is -0.121. Further, the melting temperature in data set [4] (cell cycle stage: G1/S) stood at 52.5 °C; in data set [4] (cell cycle stage: mitosis), 51.6 °C.

For the sequence “MALLLCFVLLCGVVDFARSLSITTPEEMIEKAKGETAYLPCKFTLSPEDQGPLDIEWLISPADNQKVDQVIILYSGDKIYDDYYPDLKGRVHFTSNDLKSGDASINVTNLQLSDIGTYQCKVKKAPGVANKKIHLVVLVKPSGARCYVDGSEEIGSDFKIKCEPKEGSLPLQYEWQKLSDSQKMPTSWLAEMTSSVISVKNASSEYSGTYSCTVRNRVGSDQCLLRLNVVPPSNKAGLIAGAIIGTLLALALIGLIIFCCRKKRREEKYEKEVHHDIREDVPPPKSRTSTARSYIGSNHSSLGSMSPSNMEGYSKTQYNQVPSEDFERTPQSPTLPPAKVAAPNLSRMGAIPVMIPAQSKDGSIV [CXADR]”, the “solubility change mitosis (log2)” value in data set [1] was -0.112. In addition, the thermal stability score in data set [2] (setting [5]) was -1.74; in data set [2] (cell cycle stage: mitosis) it was -2.2. Besides, in data set [3], the “solubility in G1/S (log2)” value turned out to be 0.245. Besides, the melting temperature stood at 59.4 °C in data set [4] (cell cycle stage: G1/S) and 57.6 °C in data set [4] (cell cycle stage: mitosis).

With “MALLRGVFVVAAKRTPFGAYGGLLKDFTATDLSEFAAKAALSAGKVSPETVDSVIMGNVLQSSSDAIYLARHVGLRVGIPKETPALTINRLCGSGFQSIVNGCQEICVKEAEVVLCGGTESMSQAPYCVRNVRFGTKLGSDIKLEDSLWVSLTDQHVQLPMAMTAENLAVKHKISREECDKYALQSQQRWKAANDAGYFNDEMAPIEVKTKKGKQTMQVDEHARPQTTLEQLQKLPPVFKKDGTVTAGNASGVADGAGAVIIASEDAVKKHNFTPLARIVGYFVSGCDPSIMGIGPVPAISGALKKAGLSLKDMDLVEVNEAFAPQYLAVERSLDLDISKTNVNGGAIALGHPLGGSGSRITAHLVHELRRRGGKYAVGSACIGGGQGIAVIIQSTA [ACAA2]”, the “solubility change mitosis (log2)” value in data set [1] was -0.0842. Also, the thermal stability score in data set [2] (setting [5]) is -3.39; in data set [2] (cell cycle stage: mitosis), -4.11. For the same sequence, the “solubility in G1/S (log2)” value in data set [3] was determined as 0.213. Besides, the melting temperature in data set [4] (cell cycle stage: G1/S) is 59.3 °C; in data set [4] (cell cycle stage: mitosis) it was 59.2 °C.

Consider “MALLSTVRGATWGRLVTRHFSHAARHGERPGGEELSRLLLDDLVPTSRLELLFGMTPCLLALQAARRSVARLLLQAGKAGLQGKRAELLRMAEARDIPVLRPRRQKLDTMCRYQVHQGVCMEVSPLRPRPWREAGEASPGDDPQQLWLVLDGIQDPRNFGAVLRSAHFLGVDKVITSRRNSCPLTPVVSKSSAGAMEVMDVFSTDDLTGFLQTKAQQGWLVAGTVGCPSTEDPQSSEIPIMSCLEFLWERPTLLVLGNEGSGLSQEVQASCQLLLTILPRRQLPPGLESLNVSVAAGILLHSICSQRKGFPTEGERRQLLQDPQEPSARSEGLSMAQHPGLSSGPEKERQNEG [MRM1]”, for which the “solubility change mitosis (log2)” value in data set [1] is 0.0939. The thermal stability score in data set [2] (setting [5]) was -1.62; in data set [2] (cell cycle stage: mitosis), -1.81. For the same sequence, the “solubility in G1/S (log2)” value in data set [3] was -0.178. Also, the results for the melting temperature in data set [4] (cell cycle stage: G1/S) and in data set [4] (cell cycle stage: mitosis) were 53.3 °C and 51.7 °C, respectively.

For the sequence “MALLVRVLRNQTSISQWVPVCSRLIPVSPTQGQGDRALSRTSQWPQMSQSRACGGSEQIPGIDIQLNRKYHTTRKLSTTKDSPQPVEEKVGAFTKIIEAMGFTGPLKYSKWKIKIAALRMYTSCVEKTDFEEFFLRCQMPDTFNSWFLITLLHVWMCLVRMKQEGRSGKYMCRIIVHFMWEDVQQRGRVMGVNPYILKKNMILMTNHFYAAILGYDEGILSDDHGLAAALWRTFFNRKCEDPRHLELLVEYVRKQIQYLDSMNGEDLLLTGEVSWRPLVEKNPQSILKPHSPTYNDEGL [UQCC1]”, the “solubility change mitosis (log2)” value in data set [1] is -0.25. In addition, the thermal stability score in data set [2] (setting [5]) was 0.338; in data set [2] (cell cycle stage: mitosis), -0.909. In data set [3], the “solubility in G1/S (log2)” value was -0.367. In addition, the values for the melting temperature in data set [4] (cell cycle stage: G1/S) and in data set [4] (cell cycle stage: mitosis) were 54.2 °C and 54.1 °C, respectively.

As for “MALPFRKDLEKYKDLDEDELLGNLSETELKQLETVLDDLDPENALLPAGFRQKNQTSKSTTGPFDREHLLSYLEKEALEHKDREDYVPYTGEKKGKIFIPKQKPVQTFTEEKVSLDPELEEALTSASDTELCDLAAILGMHNLITNTKFCNIMGSSNGVDQEHFSNVVKGEKILPVFDEPPNPTNVEESLKRTKENDAHLVEVNLNNIKNIPIPTLKDFAKALETNTHVKCFSLAATRSNDPVATAFAEMLKVNKTLKSLNVESNFITGVGILALIDALRDNETLAELKIDNQRQQLGTAVELEMAKMLEENTNILKFGYQFTQQGPRTRAANAITKNNDLVRKRRVEGDHQ [TMOD3]”, the “solubility change mitosis (log2)” value in data set [1] is 0.296. In addition, the thermal stability score is -0.553 in data set [2] (setting [5]) and 0.573 in data set [2] (cell cycle stage: mitosis). Moreover, the “solubility in G1/S (log2)” value in data set [3] was found to be 0.293. Further, the melting temperature in data set [4] (cell cycle stage: G1/S) is 49.4 °C; in data set [4] (cell cycle stage: mitosis), 50.5 °C.
